The record followed here is patent publication US20240181094A1, “[161Tb]-BASED RADIOPEPTIDES” (priority 2021, published 2024).

Starred links: 1 amine or outer side, 2 acyl side, 3 side chain; linkers in the order of their positions; H or OH if unused. Positions of bridges follow the written chain, without caps; N, C: chain ends. Non-standard residues stand in square brackets, D forms with d. Residues, ends and D or L forms follow the SMILES beside them. *: point of attachment. DOTA = O=C(O)CN1CCN(CC(=O)O)CCN(CC(=O)*)CCN(CC(=O)O)CC1; X1 = NC(=O)Nc1ccc(CC(N[*:1])C(=O)[*:2])cc1; Phe(4-Cl) = N[CH](Cc1ccc(Cl)cc1)C(=O)O

The tissue uptake is the percentage of the injected dose found per gram of tissue.

The test system of series [1] is AR42J tumor-bearing mice. The settings on record: female, CD-1 Foxn-1/nu athymic nude, mouse, in vivo, iv, 1 nmol/mouse, 24 h.
Series [2] concerns AR42J tumor-bearing mice. Kind of series: Biodistribution studies: comparison of 161Tb- and 177Lu-labeled peptides. The settings on record: 1 nmol/mouse, 2 h p.i.
Another series in a line: in vivo. The note with it: female, mouse, iv, 1 nmol/mouse, total radioactivity.

`CC(O)C1NC(=O)C(CCCCN)NC(=O)C(Cc2ccc(NC(N)=O)cc2)NC(=O)C(Cc2ccc(O)cc2)NC(=O)C(NC(=O)C(Cc2ccc(Cl)cc2)NC(=O)CN2CCN(CC(=O)O)CCN(CC(=O)O)CCN(CC(=O)O)CC2)CSSCC(C(=O)NC(Cc2ccc(O)cc2)C(N)=O)NC1=O` (stereo not shown) [metal not drawn] ({DOTA}-[Phe(4-Cl)]CY[X1]KTCY-NH2; disulfide 2-7; configuration not given here) displayed a Muscle uptake in the series on AR42J tumor-bearing mice [1] of no more than 0.10 % IA/g. For the same compound, in the series with AR42J tumor-bearing mice [2], the Femur uptake is on record as 0.20 ± 0.05 % IA/g and the Lung uptake is 1.0 ± 0.2 % IA/g. For the same compound, in the series “in vivo” (CD-1 Foxn-1/nu athymic nude), the tissue uptake at 2 h was no more than 0.1 %ID/g and the tissue uptake at 24 h is no more than 0.1 %ID/g. Also, in the series “in vivo” (athymic nude CD-1 Foxn-1/nu), the tissue uptake at 2 h was no more than 0.1 %ID/g and the tissue uptake at 24 h is no more than 0.1 %ID/g.
